Patent publication US20090053196

Tested on: FLAG-tagged UNC-45 (UNC-45^FLAG)

Substance: ^mycCHN-1^ΔU-box
- in vitro ubiquitylation of UNC-45, Western blot: a CHN-1 version lacking the U-box, CHN-1^ΔU-box, was not able to ubiquitylate UNC-45
